The values below are quoted from earlier work in patent US20260217837A1, “FGFR3 BINDING MOLECULES AND METHODS OF USE THEREOF” (Regeneron Pharmaceuticals, Inc., priority 2023, published 2026).

The labels stand for the following.
B1: MS-Pro-29: anti-FGFR3 Ig-like domain 3 antibody of WO 2002/102972 A2; SEQ ID NO: 40/41 (antibody, V domains shown)
VH: QVQLVQSGAEVKKPGASVKVSCKASGYTFTSYYMHWVRQAPGQGLEWMGWINPNSGGTNYAQKFQGRVTMTRDTSISTAYMELSSLRSEDTAVYYCARTWQYSYFYYLDGGYYFDIWGQGTLVTVSS
VL: DIVLTQSPATLSLSPGERATLSCRASQSVSSSYLAWYQQKPGQAPRLLIYGASSRATGVPARFSGSGSGTDFTLTISSLEPEDFATYYCQQTNNAPVTFGQGTKVEIKRT
B2: MS-Pro-28: anti-FGFR3 Ig-like domain 3 antibody of WO 2002/102972 A2; SEQ ID NO: 38/39 (antibody, V domains shown)
VH: QVQLVQSGAEVKKPGSSVKVSCKASGGTFSSYAISWVRQAPGQGLEWMGGIIPIFGTANYAQKFQGRVTITADESSTAYMELSSLRSEDTAVYYCARGGGWVSHGYYYLFDLWGQGTLVTVSS
VL: DIQMTQSPSSLSASVGDRVTITCRASQGISSYLAWYQQKPGKAPKLLIYAASSLQSGVPSRFSGSGSGTDFTLTISSLQPEDFAVYYCFQYGSIPPTFGQGTKVEIKRT
B3: MS-Pro-26: anti-FGFR3 Ig-like domain 3 antibody of WO 2002/102972 A2; SEQ ID NO: 36/37 (antibody, V domains shown)
VH: QVQLVQSGAEVKKPGASVKVSCKASGYTFTSYYMHWVRQAPGQGLEWMGWINPNSGGTNYAQKFQGRVTMTRDTSISTAYMELSSLRSEDTAVYYCARGYWYAYFTYINYGYFDNWGQGTLVTVSS
VL: DIALTQPASVSGSPGQSITISCTGTSSDVGGYNYVSWYQQHPGKAPKLMIYDVSNRPSGVSNRFSGSKSGNTASLTISGLQAEDEADYYCQSYDNNSDWFGGGTKLTVLGQ
B4: MS-Pro-2: anti-FGFR3 Ig-like domain 2 antibody of WO 2002/102972 A2; SEQ ID NO: 24/25 (antibody, V domains shown)
VH: QVQLVQSGAEVKKPGASVKVSCKASGYTFTSYYMHWVRQAPGQGLEWMGWINPNSGGTNYAQKFQGRVTMTRDTSISTAYMELSSLRSEDTAVYYCARDFLGYEFDYWGQGTLVTVSS
VL: DIELTQPPSVSVAPGQTARISCSGDALGDKYASWYQQKPGQAPVLVIYDDSDRPSGIPERFSGSNSGNTATLTISGTQAEDEADYYCQSYDYSADYVFGGGTKLTVLGQ
B5: FGA0007: anti-FGFR3 (S249C mutant) antibody of WO 2021/010326 A1; SEQ ID NO: 88/89 (antibody, V domains shown)
VH: QSVEESGGRLVTPGTPLTLTCTVSGFSLSSYPMSWVRQAPGKGLEWIGIISSSGRTYYASWAKGRFTISKASSTTAALKMTSLTTEDTATYFCARGGVYKYDDYGDYVLNLWGRGTLVTVSS
VL: AIEMTQTPFSVSAAVGGTVTINCQASENIYSNLAWYQQKPGQPPKLLIYAASYLASGVPSRFKGSGSGTDYTLTISGVQCADAATYYCQCTLYSSTYGVAFGGGTEVVVK
B6: FGA0005: anti-FGFR3 (S249C mutant) antibody of WO 2021/010326 A1; SEQ ID NO: 86/87 (antibody, V domains shown)
VH: QSLEESGGRLVTPGTPLTLTCTASGFSLSTYWICWVRQAPGEGLEWIGYISSSGNTYYASWAKGRFTISKTSSTTVDLKMTSLTTEDTATYFCGGHNSDYITGWALDPWGPGTLVTVSS
VL: AAVLTQTASPMSAAVGGTVTINCQSSKSVYRDKWLSWFQQKPGQPPKLLIYGASNLASGVSSRFKGSGSGTQFTLTISDVQCDDAATYYCLGGYSDNSEDAFGGGTEVVVK

In one data set the test system is FGFR3. As to conditions: Exemplary FGFR3 D3 binding sequences; antibodies of cited PCT publications.
With B1, the Activity result is “Antagonistic”.
Regarding B2, the Activity entry is reported as “Antagonistic”.
Consider B3, for which the Activity result is “Antagonistic”.

The data set is the same for the next values; noted with them: Table T-1, exemplary FGFR3 parental antibodies of cited publications.
As for B4, the Activity entry is reported as “Antagonistic”.
With B1, the Activity entry is reported as “Antagonistic”.
Regarding B5, the Activity entry was “Antagonistic”.
On to B2, for which the Activity result was “Antagonistic”.
As to B6, the Activity entry is “Antagonistic”.
Take B3: the Activity entry was “Antagonistic”.
